In US20230174624A1, “FERRITIN VARIANTS WITH INCREASED STABILITY, COMPLEXATION ABILITY AND TRANSFERRIN RECEPTOR AFFINITY” (CELLIS AG, priority 2020, published 2023):
Entries after “also recorded” stand apart in the source; their conditions may differ.

Assays:
[1] = Native PAGE gel after doxorubicin encapsulation and purification; assay type: physicochemical; conditions: ferritin-dox after encapsulation, concentrated on 10 or 100 kDa Amicon
Excerpt: Native PAGE gel has been performed in order to check the size of the protein after encapsulation and purification.

TfR1 = TfR1 (Homo sapiens, UniProt P02786); assay: Surface plasmon resonance binding of ferritin to immobilized his-tagged TFRC receptor
TfR1, sequence (P02786 whole entry, species assumed): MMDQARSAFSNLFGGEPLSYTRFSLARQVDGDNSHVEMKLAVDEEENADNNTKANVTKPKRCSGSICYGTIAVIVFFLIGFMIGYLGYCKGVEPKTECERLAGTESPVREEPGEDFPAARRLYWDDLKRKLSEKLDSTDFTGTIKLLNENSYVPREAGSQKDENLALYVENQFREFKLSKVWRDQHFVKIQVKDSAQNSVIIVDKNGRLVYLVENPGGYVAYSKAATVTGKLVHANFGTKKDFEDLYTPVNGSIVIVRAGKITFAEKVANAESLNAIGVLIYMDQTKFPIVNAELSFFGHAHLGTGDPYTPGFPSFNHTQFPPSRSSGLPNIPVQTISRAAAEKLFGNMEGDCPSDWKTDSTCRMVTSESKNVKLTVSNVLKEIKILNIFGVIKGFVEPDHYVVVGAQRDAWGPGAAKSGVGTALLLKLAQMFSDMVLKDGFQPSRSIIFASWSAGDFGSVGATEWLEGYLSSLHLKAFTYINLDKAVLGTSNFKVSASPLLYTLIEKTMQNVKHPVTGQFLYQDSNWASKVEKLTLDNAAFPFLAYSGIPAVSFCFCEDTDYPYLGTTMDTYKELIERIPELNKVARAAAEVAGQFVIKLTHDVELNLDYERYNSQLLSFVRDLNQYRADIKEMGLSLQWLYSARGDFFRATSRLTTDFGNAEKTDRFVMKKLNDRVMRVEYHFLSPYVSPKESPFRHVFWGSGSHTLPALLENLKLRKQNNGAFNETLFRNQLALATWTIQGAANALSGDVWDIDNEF
Description: FIG. 2: Sensorgrams corresponding to the interaction between the immobilized his-tagged TFRC receptor and human ferritin. Panel A: mutant Q11E, panel B: wild type. X-axis: time (s). The same amount of receptor was trapped onto the chip surface (see methods section for details). Five different analyte concentrations (0.0625, 0.125, 0.250, 0.5 and 1 mg/ml) were used. For all analyte concentrations measured, the amount of ferritin bound is higher for the Q11E mutant than for wild-type ferritin.
Binding of wild type and Q11E mutant ferritin to TfR1 was analysed by surface plasmon resonance.

[2] = Native gel after storage in a freezer (-80 degrees Celsius) and thawing; assay type: physicochemical; conditions: ferritin-dox
siRNA = siRNA association with ferritin (gel); assay type: binding
Description: 1 ml reaction containing 2 mg Ft and 4 ug siRNA in DPBS, pH lowered to values as indicated (2.5, 3.2, 4.4, 5.6 and 6.8, respectively). Samples were incubated 15 min in RT, then NaOH was added to adjust pH to neutral (pH 7). Non-associated free siRNA was removed by 4 centrifugation steps on Amicons with 100 kDa cut-off.

[3] = system: breast and ovarian cancer cell lines: MDA-MB 231, Skov3 and 4T1; assay: Tumour cell viability after co-culture with macrophages carrying doxorubicin packed ferritin; assay type: cell-based; conditions: 72 h co-culture with macrophages, ferritin cages filled with doxorubicin 1 mg/ml
Description: FIG. 7: Graphs of tumour cell viability after 72 h co-culture with macrophages. The concentration of ferritin cages filled with doxorubicin was the same for each variant of ferritin and was equal to 1 mg/ml.
In vitro experiments have shown that ferritin mutants reveal better cytotoxicity against tumor cells. The doxorubicin packed proteins were inserted into macrophages and then co-cultured with breast and ovarian cancer cell lines: MDA-MB 231, Skov3 and 4T1. The number of viable cells after co-culture was the lowest for the Q11E-Q15E mutant (FIG. 7).

Substance	forms on native gel (24-mers versus aggregates) [1]	binding affinity to the CD71 receptor relative to wild type (TfR1)	rate of release from its complex with CD71 receptor (TfR1)	KD (TfR1; global fit, simple 1:1 binding mode, versus wild type)	amount of ferritin bound (TfR1; versus wild-type ferritin, analyte 0.0625-1 mg/ml)	stability of cages after storage [2]	association with siRNA (siRNA; incubated in pH 2.4 and 3.2)	association with siRNA (siRNA; incubated in pH range 4.4 to 6.8)	number of viable cells after co-culture [3]
Q11E: human H ferritin mutant Q11E (TRBD SEQ ID NO. 05); in examples 3-8 also K54E, K72E, K87Q, K144E, C91S, C103S, C131S (MTTASTSQVRENYHQDSEAA; listed as Homo sapiens)	present as 24-mers (homogeneous cages)	at least fourfold	slow rate of release	lower KD value	higher	still present as 24-mers (homogeneous cages) after storage; also recorded: reduces the presence of aggregates and allows the storage of ferritin cages with doxorubicin in the freezer	not	associated with siRNA	
Q11E-Q15E: human H ferritin mutant Q11E Q15E (TRBD SEQ ID NO. 12); in examples 3-8 also K54E, K72E, K87Q, K144E, C91S, C103S (MTTASTSQVRENYHEDSEAA; listed as Homo sapiens)	present as 24-mers (homogeneous cages)					still present as 24-mers (homogeneous cages) after storage			lowest
